{"source": "patent US20210214414A1", "about": "(Pfizer, published 2021)", "binders": {"B1": {"name": "ROBO2-Fc 2.2 (Fc fusion)", "chain": "SRLRQEDFPPRIVEHPSDVIVSKGEPTTLNCKAEGRPTPTIEWYKDGERVETDKDDPRSHRMLLPSGSLFFLRIVHGRRSKPDEGSYVCVARNYLGEAVSRNASLEVALLRDDFRQNPTDVVVAAGEPAILECQPPRGHPEPTIYWKKDKVRIDDKEERISIRGGKLMISNTRKSDAGMYTCVGTNMVGERDSDPAELTVFERGGSGGSEPKSSDKTHTCPPCPAPEAAGAPSVFLFPPKPKDTLMISRTPEVTCVVVDVSHEDPEVKFNWYVDGVEVHNAKTKPREEQYNSTYRVVSVLTVLHQDWLNGKEYKCKVSNKALPAPIEKTISKAKGQPREPQVYTLPPSREEMTKNQVSLTCLVKGFYPSDIAVEWESNGQPENNYKTTPPVLDSDGSFFLYSKLTVDKSRWQQGNVFSCSVMHEALHNHYTQKSLSLSPG", "notes": "Labelled with Alexa Fluor 647 in the flow cytometry assay; also called ROBO-Fc 2.2; ROBO2-Fc 2.2-AF647"}}, "key": {"Human SLIT2-N [1]": {"target": "T1, Human SLIT2-N (human, UniProt O94813 31-1121, limits assumed)", "T1 construct": "domain: SLIT2-N (N terminal fragment); Soluble analyte in SPR, d2-labelled in HTRF, overexpressed on HEK293 cells in flow cytometry; also called human SLIT2-N (N terminal fragment)", "T1 sequence (looked up)": "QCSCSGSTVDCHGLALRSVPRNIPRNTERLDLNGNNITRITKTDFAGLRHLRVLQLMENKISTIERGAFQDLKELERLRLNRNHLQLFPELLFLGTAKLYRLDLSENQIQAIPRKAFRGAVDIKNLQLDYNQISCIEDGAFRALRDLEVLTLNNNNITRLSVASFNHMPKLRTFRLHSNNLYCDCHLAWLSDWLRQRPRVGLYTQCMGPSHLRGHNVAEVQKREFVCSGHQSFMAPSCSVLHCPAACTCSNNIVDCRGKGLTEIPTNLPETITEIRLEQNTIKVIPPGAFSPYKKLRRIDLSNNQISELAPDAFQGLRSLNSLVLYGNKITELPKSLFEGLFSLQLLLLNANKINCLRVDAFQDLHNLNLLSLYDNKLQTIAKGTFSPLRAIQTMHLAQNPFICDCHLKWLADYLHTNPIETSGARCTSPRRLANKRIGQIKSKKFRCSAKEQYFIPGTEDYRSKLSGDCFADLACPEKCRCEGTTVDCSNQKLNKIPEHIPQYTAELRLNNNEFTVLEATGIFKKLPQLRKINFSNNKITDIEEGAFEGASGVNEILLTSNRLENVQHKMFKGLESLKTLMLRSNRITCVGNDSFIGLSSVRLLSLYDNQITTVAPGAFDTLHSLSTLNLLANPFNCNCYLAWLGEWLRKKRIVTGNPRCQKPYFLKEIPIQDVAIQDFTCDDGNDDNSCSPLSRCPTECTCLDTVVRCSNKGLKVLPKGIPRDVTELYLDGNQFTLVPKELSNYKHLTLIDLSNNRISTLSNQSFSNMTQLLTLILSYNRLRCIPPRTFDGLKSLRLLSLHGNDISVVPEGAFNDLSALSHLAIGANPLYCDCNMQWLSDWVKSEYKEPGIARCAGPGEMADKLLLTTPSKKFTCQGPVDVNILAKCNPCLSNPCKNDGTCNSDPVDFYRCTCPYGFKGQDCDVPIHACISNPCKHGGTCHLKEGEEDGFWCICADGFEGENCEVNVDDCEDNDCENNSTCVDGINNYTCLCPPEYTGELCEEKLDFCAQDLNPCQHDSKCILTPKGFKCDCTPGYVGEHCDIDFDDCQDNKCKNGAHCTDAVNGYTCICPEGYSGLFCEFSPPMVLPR", "assay": "flow cytometry, AF647-labelled ROBO2-Fc 2.2 on HEK293 cells overexpressing human SLIT2-N (FIG. 5)", "method": "After incubation, 150 μL of FACS buffer was added per well to wash the cells. After washing, cells were resuspended in buffer for data acquisition on a Fortessa Flow Cytometer."}, "Human SLIT2-N [2]": {"target": "T1, Human SLIT2-N", "assay": "SPR, ROBO2-Fc 2.2 captured by anti-human Fc on a C1 chip, human SLIT2-N as analyte, 1:1 model", "method": "HBS-EP was used as a diluent. […] An 8 point 2-fold dilution series was performed on the SLIT2 ligands, ranging from 2 nM to 15.6 pM using HBS-EPB as the diluent. […] Association of the indicated SLIT2 ligand was followed for 120 s and dissociation monitored for 180 s. The apparent binding affinity was determined using a simple 1:1 interaction model of the kinetic rate constants."}, "Rabbit SLIT3-N": {"target": "T2, Rabbit SLIT3-N (rabbit, UniProt A0A5F9DK65 34-1126)", "T2 construct": "domain: SLIT3-N; d2-labelled in the HTRF assay", "T2 sequence": "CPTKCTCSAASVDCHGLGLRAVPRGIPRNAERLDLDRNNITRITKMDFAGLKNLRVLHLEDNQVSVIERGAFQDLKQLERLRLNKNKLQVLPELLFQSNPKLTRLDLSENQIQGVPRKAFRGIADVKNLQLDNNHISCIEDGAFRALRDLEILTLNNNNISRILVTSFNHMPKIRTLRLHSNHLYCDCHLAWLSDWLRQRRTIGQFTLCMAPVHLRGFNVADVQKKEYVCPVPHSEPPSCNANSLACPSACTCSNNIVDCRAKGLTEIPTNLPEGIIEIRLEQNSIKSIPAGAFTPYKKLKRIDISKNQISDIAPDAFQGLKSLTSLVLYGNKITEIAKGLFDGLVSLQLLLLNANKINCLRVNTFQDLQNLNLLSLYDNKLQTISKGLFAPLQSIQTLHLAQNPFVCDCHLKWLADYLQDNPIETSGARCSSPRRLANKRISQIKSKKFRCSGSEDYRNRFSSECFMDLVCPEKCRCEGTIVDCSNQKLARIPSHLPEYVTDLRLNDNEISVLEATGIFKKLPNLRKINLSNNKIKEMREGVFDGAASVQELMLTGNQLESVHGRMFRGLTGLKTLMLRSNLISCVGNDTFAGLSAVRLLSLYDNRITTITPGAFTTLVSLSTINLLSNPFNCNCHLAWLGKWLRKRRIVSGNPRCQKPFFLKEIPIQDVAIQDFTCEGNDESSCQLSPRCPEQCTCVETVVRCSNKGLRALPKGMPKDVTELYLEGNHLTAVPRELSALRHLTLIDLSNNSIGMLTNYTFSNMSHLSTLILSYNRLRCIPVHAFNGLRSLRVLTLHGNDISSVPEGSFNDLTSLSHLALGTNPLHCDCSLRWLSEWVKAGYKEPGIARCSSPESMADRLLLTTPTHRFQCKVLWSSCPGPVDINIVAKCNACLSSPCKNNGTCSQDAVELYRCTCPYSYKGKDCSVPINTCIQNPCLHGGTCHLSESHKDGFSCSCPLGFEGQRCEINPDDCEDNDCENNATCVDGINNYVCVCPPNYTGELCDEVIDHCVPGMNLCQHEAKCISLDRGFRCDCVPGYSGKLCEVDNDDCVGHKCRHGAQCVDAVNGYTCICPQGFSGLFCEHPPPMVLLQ", "assay": "HTRF competition: d2-labelled rabbit SLIT3-N binding to human ROBO2 on HEK293 cells; geometric mean, n=3", "method": "After incubation, fluorescence at 665 nm and 620 nm was measured on an Envision multilabel plate reader. The HTRF Ratio was calculated as follows: fluorescence at 665 nm/fluorescence at 620 nm×10,000. […] The IC₅₀ for each SLITx-N was determined using an 11-point, 4-fold dilution series with a top concentration of 4000 nM."}}}
{"binder": "B1", "values": [{"measurement": "EC50", "setting": "Human SLIT2-N [1]", "value": 9, "unit": "nM"}, {"measurement": "Kd", "setting": "Human SLIT2-N [2]", "value": 0.279, "unit": "nM"}, {"measurement": "IC50", "setting": "Rabbit SLIT3-N", "value": 10.2, "unit": "nM"}]}
